In patent US20120058126A1:

Legend:
[1] = molecular target: human sR3-AP (Ig domains 1-3) P219L (human) (UniProt P05187); test: sR3-AP binding assay: conditioned medium on VEGF-CΔNΔC-coated plates, AP chemiluminescence, triplicate
[2] = molecular target: human sR3-AP (Ig domains 1-3) V175A (human) (UniProt P05187); test: as above
Sequence of human sR3-AP (Ig domains 1-3) V175A (human) (P05187 other isoform, or with tags, fused parts or gaps V175A V175A): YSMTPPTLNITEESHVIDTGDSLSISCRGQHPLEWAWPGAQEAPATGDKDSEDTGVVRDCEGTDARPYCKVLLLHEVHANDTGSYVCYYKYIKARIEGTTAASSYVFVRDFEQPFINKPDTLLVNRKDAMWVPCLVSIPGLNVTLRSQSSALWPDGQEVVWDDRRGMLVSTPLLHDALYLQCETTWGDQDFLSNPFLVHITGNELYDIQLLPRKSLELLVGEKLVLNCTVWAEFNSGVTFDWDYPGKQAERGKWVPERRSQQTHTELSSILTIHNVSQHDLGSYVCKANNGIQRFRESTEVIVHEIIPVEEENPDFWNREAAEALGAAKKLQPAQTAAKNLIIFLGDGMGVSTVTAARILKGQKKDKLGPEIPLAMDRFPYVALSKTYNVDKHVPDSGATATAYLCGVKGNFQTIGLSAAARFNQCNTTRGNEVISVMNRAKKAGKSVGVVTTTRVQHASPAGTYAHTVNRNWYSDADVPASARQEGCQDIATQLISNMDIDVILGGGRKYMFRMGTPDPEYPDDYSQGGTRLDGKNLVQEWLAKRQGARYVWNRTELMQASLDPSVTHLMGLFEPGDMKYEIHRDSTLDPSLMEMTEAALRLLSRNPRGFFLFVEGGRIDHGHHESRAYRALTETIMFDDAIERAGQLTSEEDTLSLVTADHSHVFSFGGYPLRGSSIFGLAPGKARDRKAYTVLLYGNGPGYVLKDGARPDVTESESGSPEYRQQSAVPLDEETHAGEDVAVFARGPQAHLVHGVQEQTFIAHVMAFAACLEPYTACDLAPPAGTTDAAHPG

Sequence of recombinant mature human VEGF-CΔNΔC (P49767 112-215 limits assumed, stated change not applied): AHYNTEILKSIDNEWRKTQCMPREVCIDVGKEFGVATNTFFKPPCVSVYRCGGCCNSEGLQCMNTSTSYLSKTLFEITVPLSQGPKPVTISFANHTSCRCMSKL
Sequence of human sR3-AP (Ig domains 1-3) P219L (human) (P05187 other isoform, or with tags, fused parts or gaps P219L P219L): as the sequence (P05187 other isoform, or with tags, fused parts or gaps V175A V175A) above, with A151V, P195L counted along it

For “recombinant mature human VEGF-CΔNΔC (from UniProt P49767 112-215) (ligand)”, the loss of binding against wild-type human sR3-AP [1] was 75% and the loss of binding against wild-type human sR3-AP [2] was 50%.
